Experiments:
Glycopeptide = assay: surface plasmon resonance, Table S3 of Brooks et al. (2010) PNAS drawn on the sheet; per legend paragraph 58 measured for the 237 Fab [C]
[1] = biological target: Tn-glycosylated murine podoplanin on COSMC-mutant cells (murine) (UniProt Q62011); assay: flow cytometry on Ag104A, Jurkat and SKOV3 variants; binding ratio = MFI primary+secondary / MFI secondary alone
Chain of Tn-glycosylated murine podoplanin on COSMC-mutant cells (murine) (Q62011 23-172, change not shown): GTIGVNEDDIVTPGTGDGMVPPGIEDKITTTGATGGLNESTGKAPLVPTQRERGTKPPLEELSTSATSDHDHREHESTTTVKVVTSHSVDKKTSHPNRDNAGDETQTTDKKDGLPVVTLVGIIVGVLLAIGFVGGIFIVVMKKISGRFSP

Row | Binder | koff (Glycopeptide) | kon (Glycopeptide) | fold of binding ratio over cells that were PDPN- and/or Cosmc+ [1]
1 | 237mAb Fab (Fab, V domains shown) VH: QVQLQQSGGGLVQPGGSMKIFCAASGFTFSDAWMDWVRQSPEKGLEWVAEIRNKANNHETYYAESVKGRFTITRDDSKSRMSLQMNSLRAEDTGIYYCSGGKVRNAYWGQGTTVTVSS VL: DIQLTQSPLSLPVSLGDQASISCRSSQSLVHSNGNTYLHWYLQKPGQSPKLLIYKVSNRFSGVPDRFSGSGSGTDFTLKISSVEAEDLGVYFCSQSTHVPTFGGGTKLEIK | 0.013 s⁻¹ | 94000 M⁻¹ s⁻¹ | 
2 | 237 monoclonal antibody (antibody, V domains shown) VH: QVQLQQSGGGLVQPGGSMKIFCAASGFTFSDAWMDWVRQSPEKGLEWVAEIRNKANNHETYYAESVKGRFTITRDDSKSRMSLQMNSLRAEDTGIYYCSGGKVRNAYWGQGTTVTVSS VL: DIQLTQSPLSLPVSLGDQASISCRSSQSLVHSNGNTYLHWYLQKPGQSPKLLIYKVSNRFSGVPDRFSGSGSGTDFTLKISSVEAEDLGVYFCSQSTHVPTFGGGTKLEIK |  |  | > 100 fold

From US20220047631A1
